Measurements taken from EP4574844A1 (Numab Therapeutics AG, dated 2025).

B1: PRO4673 (antibody)
chain 1: DVQMTQSPSSLSASVGDRVTITCQASQSISSWVSWYQQKPGKPPKLLIYRGGYLESGVPSRFSASGSGTDFTLTISSLQPEDFATYYCQSTDSSTYGGAFGCGTKVTVLGGGGGSGGGGSGGGGSGGGGSQQVVESGGGLVQPGGSLRLSCAVSGIDLNSYAMTWVRQAPGKCLEWIGYIGSASSTYYASWASGRFTISKDNSKNTVYLQMNSLRAEDSAVYFCARGSTYINIWGQGTLVKVSSEPKSSDKTHTCPPCPAPELLGGPSVFLFPPKPKDTLMISRTPEVTCVVVDVSHEDPEVKFNWYVDGVEVHNAKTKPREEQYNSTYRVVSVLTVLHQDWLNGKEYKCKVSNKALPAPIEKTISKAKGQPREPQVYTLPPCREEMTKNQVSLSCAVKGFYPSDIAVEWESNGQPENNYKTTPPVLDSDGSFFLVSKLTVDKSRWQQGNVFSCSVMHEALHNHYTQKSLSLSPGKGGGGSGGGGSDIQMTQSPSSLSASVGDRVTITCQSSESVYSNNQLSWYQQKPGQPPKLLIYDASDLASGVPSRFSGSGSGTDFTLTISSLQPEDFATYYCAGGFSSSSDTAFGCGTKLTVLGGGGGSGGGGSGGGGSGGGGSEVQLVESGGGLVQPGGSLRLSCAASGFSLSSNAMGWVRQAPGKCLEYIGIISVGGFTYYASWAKGRFTISRDNSKNTVYLQMNSLRAEDSATYFCARDRHGGDSSGAFYLWGQGTLVKVSS
chain 2: not shown
B2: PRO3723 (scFv)
scFv: DIQMTQSPASLSASVGDRVTITCQASQSIGTYLAWYQQKPGKPPKLLIYRGGILASGVPSRFSGSGSGTDFTLTISSLQPEDFATYYCQSNFYSDSTTIGPNAFGTGTKVTVLGGGGGSGGGGSGGGGSGGGGSEVQLVESGGGLVQPGGSLRLSCAASGFSFNSDYWIYWVRQAPGKGLEWIACIYGGSSGNTQYASWAQGRFTISRDNSKNTVYLQMNSLRAEDTAVYFCARGYVDYGGATDLWGQGTLVTVSS
notes: anti-PDL1 scFv
B3: PRO3724 (scFv)
scFv: DIQMTQSPSSLSASVGDRVTITCQASQSINDYLAWYQQKPGKAPKLLIYKGGTLASGVPSRFSGSGSGTDFTLTISSLQPEDFATYYCQQGYIITDIDNVFGTGTKVTVLGGGGGSGGGGSGGGGSGGGGSQVQLQESGPGLVKPSETLSLTCKASGFSFSSGYDMCWVRQPPGKGLEWIACVVAGSVDITYYASWAKGRVTISKDSSKNQVSLKLSSVTAADTAVYYCARKDAYSDAFNLWGQGTLVTVSS
notes: anti-PDL1 scFv
B4: PRO4682 (antibody, human IgG1, kappa)
chain: QQVVESGGGLVQPGGSLRLSCAVSGIDLNSYAMTWVRQAPGKGLEWIGYIGSASSTYYASWASGRFTISKDNSKNTVYLQMNSLRAEDTAVYFCARGSTYINIWGQGTLVTVSSASTKGPSVFPLAPSSKSTSGGTAALGCLVKDYFPEPVTVSWNSGALTSGVHTFPAVLQSSGLYSLSSVVTVPSSSLGTQTYICNVNHKPSNTKVDKKVEPKSCDKTHTCPPCPAPELLGGPSVFLFPPKPKDTLMISRTPEVTCVVVDVSHEDPEVKFNWYVDGVEVHNAKTKPREEQYNSTYRVVSVLTVLHQDWLNGKEYKCKVSNKALPAPIEKTISKAKGQPREPQVYTLPPCREEMTKNQVSLSCAVKGFYPSDIAVEWESNGQPENNYKTTPPVLDSDGSFFLVSKLTVDKSRWQQGNVFSCSVMHEALHNHYTQKSLSLSPGKGGGGGSGGGGSDVQMTQSPSSLSASVGDRVTITCQASQSIGSNLAWYQQKPGKPPKLLIYKGGTLESGVPSRFSGSGSGTDFTLTISSLQPEDFATYYCQSTAGSSRSGNYGYVFGCGTKVTVLGGGGGSGGGGSGGGGSGGGGSQQLVESGGGLVQPGGSLRLSCAASGFSFTNNYYMCWVRQAPGKCLEWIACMLVGAWGNTYYASWANGRFTISKDNSKNTVYLQMNSLRAEDSAVYFCARARDYTWTLGGDPETSGFNLWGQGTLVKVSS
heavy: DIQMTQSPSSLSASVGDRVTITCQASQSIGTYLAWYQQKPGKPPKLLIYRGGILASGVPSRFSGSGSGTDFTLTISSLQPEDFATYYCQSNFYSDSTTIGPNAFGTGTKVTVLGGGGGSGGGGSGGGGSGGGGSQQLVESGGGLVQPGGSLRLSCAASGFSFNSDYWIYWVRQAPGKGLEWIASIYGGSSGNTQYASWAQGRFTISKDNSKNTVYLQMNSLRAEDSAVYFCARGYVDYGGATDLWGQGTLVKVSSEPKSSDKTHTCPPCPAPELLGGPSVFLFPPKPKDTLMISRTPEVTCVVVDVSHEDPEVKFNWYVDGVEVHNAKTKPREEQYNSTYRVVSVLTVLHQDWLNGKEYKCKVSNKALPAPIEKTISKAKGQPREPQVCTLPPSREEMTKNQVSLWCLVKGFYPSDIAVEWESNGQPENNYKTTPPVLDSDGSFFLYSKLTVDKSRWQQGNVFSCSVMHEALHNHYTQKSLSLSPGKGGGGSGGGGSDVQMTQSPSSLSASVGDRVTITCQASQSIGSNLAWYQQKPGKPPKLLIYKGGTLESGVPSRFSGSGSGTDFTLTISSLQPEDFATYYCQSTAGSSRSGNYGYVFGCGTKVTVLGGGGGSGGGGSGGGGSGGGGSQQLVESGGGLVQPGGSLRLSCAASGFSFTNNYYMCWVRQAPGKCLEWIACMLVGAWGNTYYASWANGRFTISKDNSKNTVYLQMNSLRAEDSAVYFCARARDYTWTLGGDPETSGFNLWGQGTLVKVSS
light: DVQMTQSPSSLSASVGDRVTITCQASQSISSWVSWYQQKPGKPPKLLIYRGGYLESGVPSRFSASGSGTDFTLTISSLQPEDFATYYCQSTDSSTYGGAFGQGTKVEIKRTVAAPSVFIFPPSDEQLKSGTASVVCLLNNFYPREAKVQWKVDNALQSGNSQESVTEQDSKDSTYSLSSTLTLSKADYEKHKVYACEVTHQGLSSPVTKSFNRGEC
B5: PRO4683 (antibody, human IgG1, kappa)
chain: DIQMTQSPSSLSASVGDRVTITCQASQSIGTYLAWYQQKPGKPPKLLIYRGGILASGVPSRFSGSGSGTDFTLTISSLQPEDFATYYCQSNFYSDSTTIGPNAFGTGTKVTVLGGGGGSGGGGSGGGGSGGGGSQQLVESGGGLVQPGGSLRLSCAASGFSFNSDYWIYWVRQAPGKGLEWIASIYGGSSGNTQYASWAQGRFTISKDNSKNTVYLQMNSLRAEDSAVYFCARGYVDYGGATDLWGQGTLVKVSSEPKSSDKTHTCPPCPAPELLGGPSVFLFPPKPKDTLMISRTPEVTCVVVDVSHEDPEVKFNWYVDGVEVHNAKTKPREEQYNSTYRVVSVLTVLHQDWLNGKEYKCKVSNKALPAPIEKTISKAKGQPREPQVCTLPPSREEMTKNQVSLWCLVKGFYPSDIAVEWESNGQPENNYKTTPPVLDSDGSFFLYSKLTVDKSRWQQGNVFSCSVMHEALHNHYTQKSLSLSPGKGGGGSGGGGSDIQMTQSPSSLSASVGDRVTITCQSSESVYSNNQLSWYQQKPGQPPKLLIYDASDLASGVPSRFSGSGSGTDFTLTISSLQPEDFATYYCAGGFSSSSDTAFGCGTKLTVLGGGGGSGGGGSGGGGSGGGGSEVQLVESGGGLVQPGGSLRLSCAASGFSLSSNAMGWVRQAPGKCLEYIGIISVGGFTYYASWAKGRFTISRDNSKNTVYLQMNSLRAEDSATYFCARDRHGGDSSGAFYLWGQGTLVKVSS
heavy: QQVVESGGGLVQPGGSLRLSCAVSGIDLNSYAMTWVRQAPGKGLEWIGYIGSASSTYYASWASGRFTISKDNSKNTVYLQMNSLRAEDTAVYFCARGSTYINIWGQGTLVTVSSASTKGPSVFPLAPSSKSTSGGTAALGCLVKDYFPEPVTVSWNSGALTSGVHTFPAVLQSSGLYSLSSVVTVPSSSLGTQTYICNVNHKPSNTKVDKKVEPKSCDKTHTCPPCPAPELLGGPSVFLFPPKPKDTLMISRTPEVTCVVVDVSHEDPEVKFNWYVDGVEVHNAKTKPREEQYNSTYRVVSVLTVLHQDWLNGKEYKCKVSNKALPAPIEKTISKAKGQPREPQVYTLPPCREEMTKNQVSLSCAVKGFYPSDIAVEWESNGQPENNYKTTPPVLDSDGSFFLVSKLTVDKSRWQQGNVFSCSVMHEALHNHYTQKSLSLSPGKGGGGGSGGGGSDIQMTQSPSSLSASVGDRVTITCQSSESVYSNNQLSWYQQKPGQPPKLLIYDASDLASGVPSRFSGSGSGTDFTLTISSLQPEDFATYYCAGGFSSSSDTAFGCGTKLTVLGGGGGSGGGGSGGGGSGGGGSEVQLVESGGGLVQPGGSLRLSCAASGFSLSSNAMGWVRQAPGKCLEYIGIISVGGFTYYASWAKGRFTISRDNSKNTVYLQMNSLRAEDSATYFCARDRHGGDSSGAFYLWGQGTLVKVSS
light: B4 light
B6: PRO5036 (scFv)
scFv: DIQMTQSPSSLSASVGDRVTITCQASQSIGTYLAWYQQKPGKPPKLLIYRGGILASGVPSRFSGSGSGTDFTLTISSLQPEDFATYYCQSNFYSDSTTIGPNAFGTGTKVTVLGGGGGSGGGGSGGGGSGGGGSQQLVESGGGLVQPGGSLRLSCAASGFSFNSDYWIYWVRQAPGKGLEWIASIYGGSSGNTQYASWAQGRFTISKDNSKNTVYLQMNSLRAEDTAVYFCARGYVDYGGATDLWGQGTLVTVSS
notes: anti-PDL1 scFv
B7: PRO4914 (antibody, human IgG1, kappa)
heavy 1: QQVVESGGGLVQPGGSLRLSCAVSGIDLNSYAMTWVRQAPGKGLEWIGYIGSASSTYYASWASGRFTISKDNSKNTVYLQMNSLRAEDTAVYFCARGSTYINIWGQGTLVTVSSASVAAPSVFIFPPSDEQLKSGTASVVCLLNNFYPREAKVQWKVDNALQSGNSQESVTEQDSKDSTYSLSSTLTLSKADYEKHKVYACEVTHQGLSSPVTKSFNRGECDKTHTCPPCPAPELLGGPSVFLFPPKPKDTLMISRTPEVTCVVVDVSHEDPEVKFNWYVDGVEVHNAKTKPREEQYNSTYRVVSVLTVLHQDWLNGKEYKCKVSNKALPAPIEKTISKAKGQPREPQVYTLPPCREEMTKNQVSLSCAVKGFYPSDIAVEWESNGQPENNYKTTPPVLDSDGSFFLVSKLTVDKSRWQQGNVFSCSVMHEALHNHYTQKSLSLSPGKGGGGSGGGGSDVQMTQSPSSLSASVGDRVTITCQASQSIGSNLAWYQQKPGKPPKLLIYKGGTLESGVPSRFSGSGSGTDFTLTISSLQPEDFATYYCQSTAGSSRSGNYGYVFGCGTKVTVLGGGGGSGGGGSGGGGSGGGGSQQLVESGGGLVQPGGSLRLSCAASGFSFTNNYYMCWVRQAPGKCLEWIACMLVGAWGNTYYASWANGRFTISKDNSKNTVYLQMNSLRAEDSAVYFCARARDYTWTLGGDPETSGFNLWGQGTLVKVSS
heavy 2: not shown
light 1: DVQMTQSPSSLSASVGDRVTITCQASQSISSWVSWYQQKPGKPPKLLIYRGGYLESGVPSRFSASGSGTDFTLTISSLQPEDFATYYCQSTDSSTYGGAFGQGTKVEIKSSASTKGPSVFPLAPSSKSTSGGTAALGCLVKDYFPEPVTVSWNSGALTSGVHTFPAVLQSSGLYSLSSVVTVPSSSLGTQTYICNVNHKPSNTKVDKKVEPKSC
light 2: DIQMTQSPSSLSASVGDRVTITCQASQSIGTYLAWYQQKPGKPPKLLIYRGGILASGVPSRFSGSGSGTDFTLTISSLQPEDFATYYCQSNFYSDSTTIGPNAFGQGTKVEIKRTVAAPSVFIFPPSDEQLKSGTASVVCLLNNFYPREAKVQWKVDNALQSGNSQESVTEQDSKDSTYSLSSTLTLSKADYEKHKVYACEVTHQGLSSPVTKSFNRGEC
B8: PRO5054 (antibody)
chain 1: DIQMTQSPSSLSASVGDRVTITCQSSESVYSNNQLSWYQQKPGQPPKLLIYDASDLASGVPSRFSGSGSGTDFTLTISSLQPEDFATYYCAGGFSSSSDTAFGCGTKLTVLGGGGGSGGGGSGGGGSGGGGSEVQLVESGGGLVQPGGSLRLSCAASGFSLSSNAMGWVRQAPGKCLEYIGIISVGGFTYYASWAKGRFTISRDNSKNTVYLQMNSLRAEDSATYFCARDRHGGDSSGAFYLWGQGTLVKVSSEPKSSDKTHTCPPCPAPELLGGPSVFLFPPKPKDTLMISRTPEVTCVVVDVSHEDPEVKFNWYVDGVEVHNAKTKPREEQYNSTYRVVSVLTVLHQDWLNGKEYKCKVSNKALPAPIEKTISKAKGQPREPQVYTLPPCREEMTKNQVSLSCAVKGFYPSDIAVEWESNGQPENNYKTTPPVLDSDGSFFLVSKLTVDKSRWQQGNVFSCSVMHEALHNHYTQKSLSLSPGKGGGGSGGGGSDVQMTQSPSSLSASVGDRVTITCQASQSIGSNLAWYQQKPGKPPKLLIYKGGTLESGVPSRFSGSGSGTDFTLTISSLQPEDFATYYCQSTAGSSRSGNYGYVFGCGTKVTVLGGGGGSGGGGSGGGGSGGGGSQQLVESGGGLVQPGGSLRLSCAASGFSFTNNYYMCWVRQAPGKCLEWIACMLVGAWGNTYYASWANGRFTISKDNSKNTVYLQMNSLRAEDSAVYFCARARDYTWTLGGDPETSGFNLWGQGTLVKVSS
chain 2: not shown
B9: PRO5057 (antibody, human IgG1, kappa)
chain: B8 chain 1
heavy: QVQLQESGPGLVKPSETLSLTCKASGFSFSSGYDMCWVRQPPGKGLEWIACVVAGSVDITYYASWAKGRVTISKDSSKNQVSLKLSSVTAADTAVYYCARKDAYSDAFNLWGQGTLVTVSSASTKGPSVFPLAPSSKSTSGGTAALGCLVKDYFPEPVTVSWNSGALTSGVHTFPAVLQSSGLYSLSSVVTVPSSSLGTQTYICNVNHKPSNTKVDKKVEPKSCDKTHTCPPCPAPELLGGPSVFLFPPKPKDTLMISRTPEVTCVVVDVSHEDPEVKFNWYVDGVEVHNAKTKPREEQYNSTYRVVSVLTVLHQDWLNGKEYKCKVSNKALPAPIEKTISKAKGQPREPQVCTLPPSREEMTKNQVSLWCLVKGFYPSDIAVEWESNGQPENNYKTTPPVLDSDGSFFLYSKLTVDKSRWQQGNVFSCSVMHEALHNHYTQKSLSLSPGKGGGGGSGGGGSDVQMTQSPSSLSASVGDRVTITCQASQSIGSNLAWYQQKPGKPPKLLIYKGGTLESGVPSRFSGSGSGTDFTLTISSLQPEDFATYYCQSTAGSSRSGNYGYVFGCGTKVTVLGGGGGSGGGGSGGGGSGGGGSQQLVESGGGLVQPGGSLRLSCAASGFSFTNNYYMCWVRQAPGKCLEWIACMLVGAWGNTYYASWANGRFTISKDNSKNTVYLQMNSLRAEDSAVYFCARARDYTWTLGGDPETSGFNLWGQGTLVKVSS
light: DIQMTQSPSSLSASVGDRVTITCQASQSINDYLAWYQQKPGKAPKLLIYKGGTLASGVPSRFSGSGSGTDFTLTISSLQPEDFATYYCQQGYIITDIDNVFGQGTKVEIKRTVAAPSVFIFPPSDEQLKSGTASVVCLLNNFYPREAKVQWKVDNALQSGNSQESVTEQDSKDSTYSLSSTLTLSKADYEKHKVYACEVTHQGLSSPVTKSFNRGEC

How the values were obtained:
[1] = molecular target: human PD-L1 on the cell surface (human, UniProt Q9NZQ7 19-290); test: cell-based or functional assay
[2] = molecular target: human CD47 on the cell surface (human, UniProt Q08722 19-323); test: cell-based or functional assay
recombinant human PDL1 = molecular target: T1, recombinant human PDL1 (human, UniProt Q9NZQ7 19-238, limits assumed); test: SPR
T1 construct: SPR antigen; also called CD274; B7-H1

Binder | PD-L1 driven EC50 [nM], phagocytosis of H292 cells [1] [nM] | CD47 driven EC50 [nM], phagocytosis of H292 cells [2] [nM] | Kd (recombinant human PDL1) [nM] | koff (recombinant human PDL1) [s⁻¹] | kon (recombinant human PDL1) [M⁻¹ s⁻¹] | CD47 driven EC50 [nM], phagocytosis of RBCs [2] [nM]
B1 | 0.18 | 11 |  |  |  | 
B2 |  |  | 0.0258 | 7.95e-05 | 3.08e+06 | 
B3 |  |  | 0.012 | 5.7e-05 | 4.7e+06 | 
B4 | 0.14 | 9.3 |  |  |  | 2.78
B5 | 0.19 | 5.33 |  |  |  | 2.69
B6 |  |  | 0.034 | 0.00014 | 4e+06 | 
B7 | 0.071 | 25.2 |  |  |  | 37.4
B8 | 0.09 |  |  |  |  | 
B9 | 0.13 |  |  |  |  | 
